Results published in US20090275637, “PROTEIN TYROSINE PHOSPHATASE INHIBITORS” (published 2009).

What was measured:
[1] = target: T1, PTP1B catalytic domain (321 residues), GST fusion (Homo sapiens, UniProt P18031 P18031:1-321); assay: filter; 20 mM HEPES pH 7.2, 5 mM MgCl2, 125 mM NaCl, room temperature; details: tags: GST; hairpin
T1 sequence: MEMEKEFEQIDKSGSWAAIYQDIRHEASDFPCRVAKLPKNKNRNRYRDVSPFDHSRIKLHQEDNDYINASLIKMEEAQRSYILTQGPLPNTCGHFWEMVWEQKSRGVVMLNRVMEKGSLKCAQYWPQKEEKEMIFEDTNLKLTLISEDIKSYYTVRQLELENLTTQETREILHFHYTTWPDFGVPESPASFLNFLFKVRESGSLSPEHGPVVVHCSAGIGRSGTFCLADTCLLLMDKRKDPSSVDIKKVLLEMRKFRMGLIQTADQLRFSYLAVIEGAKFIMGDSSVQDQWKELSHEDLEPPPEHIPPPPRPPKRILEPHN
Protocol: Binding assays were carried out in triplicate at 12 different PTP1B concentrations using a Schleicher & Schuell Milliblot™ apparatus with 0.45 μm BioRad TransBlot® nitrocellulose layered on top of a Hybond™-N+nylon transfer membrane. Radiolabelled RNA at 100-500 pM was heated to 75° C. for 3 minutes then cooled to room temperature before mixing with a 2× serial dilution of the target and also a no-target control. 150 μL of the mixtures at each of the 12 enzyme concentrations were pre-incubated at room temperature for 60 minutes before applying to the pre-washed membrane to allow the RNA complex to reach equilibrium (Waley, S. G. (1993) The Biochemical journal 294 Pt 1, 195-200). Following addition of 40 μL per well of each mixture to three separate wells of the Milliblot™ apparatus, the filter was washed 3 times. The dilutions and all washes used the binding buffer described above. Activity of the filters was measured using a FujiFilm BAS-1800II phosphorimager and relative density used to estimate the fraction of radiolabelled RNA retained on the nitrocellulose and nylon membranes.
A binding assay with a concentration of 2 nM of the radiolabelled C13M21 nucleic acid ligand against PTP1B-GST was performed with the protein concentration ranging from 1 nM to 512 nM in a 2:1 serial dilution. […]

[2] = target: T2, PTP1B (Homo sapiens, UniProt P18031 P18031:1-321); assay: inhibition; 20 mM NaCl, 5 uM DiFMUP; p151 quotes about 600 pM; details: tags: N-terminal His6; R&D Systems 1366-PT-050; hairpin
T2 sequence: T1 sequence

[3] = target: T2, PTP1B; assay: inhibition; 125 mM NaCl, DiFMUP, competitive; 20 nM from Lineweaver-Burk fit; details: tags: N-terminal His6; R&D Systems 1366-PT-050; hairpin
Protocol: In parallel with a no-RNA control, the activity in the presence of 30 nM C13M21 was measured in duplicate for varying concentrations of DiFMUP. […] Fitting of the data in the presence of C13M21 gave a Kₘ*of 63 μM, which equates to a Kᵢ of 20 nM. The fitted Vₘₐₓ in the presence of the inhibitor was equal to or slightly greater than the no-RNA Vₘₐₓ, indicating the presence of competitive inhibition.
(§1) To further refine the estimate of Kᵢ, an assay was run at a fixed DiFMUP concentration of 20 μM with the C13M21 and the full-length C13 nucleic acid ligand, each premixed with the PTP1B at […] in the 125 mM NaCl buffer. […] Nonlinear fitting gives an estimate of the IC₅₀ of […]. Based on a Kₘ of 25 μM, and assuming competitive inhibition, this gives a Kᵢ of 45 nM for C13M21 and a Kᵢ of 7 nM for the full-length nucleic acid ligand at 125 mM NaCl concentration.

[4] = target: T2, PTP1B; assay: inhibition; parent about 35 nM; details: tags: N-terminal His6; R&D Systems 1366-PT-050
Protocol: Several single-base modifications of the M21 nucleic acid ligand were also tested to determine whether the changes would affect the level of inhibition. With reference to the postulated secondary structure shown in FIG. 9, the sequence at each position on the unpaired regions was modified at positions 31 through 37 and positions 42 through 46. […] From this, it appears that the other nucleotides are either critical in the contact with the PTP1B molecule or in shaping the nucleic acid ligand into a conformation that binds with the PTP1B.

[5] = target: T2, PTP1B; assay: inhibition; 20 mM NaCl, 5 uM DiFMUP; details: tags: N-terminal His6; R&D Systems 1366-PT-050; hairpin
[6] = target: T2, PTP1B; assay: inhibition; 125 mM NaCl, DiFMUP; details: tags: N-terminal His6; R&D Systems 1366-PT-050; hairpin
Protocol: as §1

Binder: GGGAAUUCUGUGAUCAAUUUGGCAAUCCGCCACACGAGUUC (ssRNA) [C13M21]
- Kd [1]: 28 nM
- Ki [2]: 0.3 nM
- Ki [3]: 45 nM

Binder: GGGAAUUCUGUGAUCAAUUUGGCAAUCCGCCACACUAGUUC (ssRNA, [36]) [C13M21 G54U]
- Ki [4]: 48 nM

Binder: GGGAAUUCUGUGAUUAAUUUGGCAAUCCGCCACACUAGUUC (ssRNA, [15,36]) [C9 shortened to M21 range]
- Ki [4]: ~250 nM

B1: C13 (ssRNA)
RNA: GGGAAUGGAUCCACAUCUACGAAUUCUGUGAUCAAUUUGGCAAUCCGCCACACGAGUUCACUGCAGACUUGACGAAGCUU
- Ki [5]: < 0.1 nM
- Ki [6]: 7 nM
